Target: T1, mScarlet-V5-TurboID-Rab9a (human, UniProt P51151 1-201)
T1 sequence (looked up): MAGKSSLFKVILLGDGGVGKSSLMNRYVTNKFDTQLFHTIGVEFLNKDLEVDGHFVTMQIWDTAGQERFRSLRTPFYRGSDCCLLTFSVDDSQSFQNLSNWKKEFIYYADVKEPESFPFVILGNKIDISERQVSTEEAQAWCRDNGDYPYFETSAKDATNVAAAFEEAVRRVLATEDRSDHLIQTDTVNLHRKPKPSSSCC
Assay: proximity labelling

- fold Rtn3L biotinylation, WT Rab9a against Rab9aΔFSV: 10 fold
B1: Reticulon-3L (Rtn3L), endogenous (natural protein, human (endogenous in HeLa), UniProt O95197-2 1-1013, looked up)
chain: MAEPSAATQSHSISSSSFGAEPSAPGGGGSPGACPALGTKSCSSSCAEGLSSLCSDEPSSEIMTSSFLSSSEIHNTGLTILHGEKSHVLGSQPILAKEGKDHLDLLDMKKMEKPQGTSNNVSDSSVSLAAGVHCDRPSIPASFPEHPAFLSKKIGQVEEQIDKETKNPNGVSSREAKTALDADDRFTLLTAQKPPTEYSKVEGIYTYSLSPSKVSGDDVIEKDSPESPFEVIIDKAAFDKEFKDSYKESTDDFGSWSVHTDKESSEDISETNDKLFPLRNKEAGRYPMSALLSRQFSHTNAALEEVSRCVNDMHNFTNEILTWDLVPQVKQQTDKSSDCITKTTGLDMSEYNSEIPVVNLKTSTHQKTPVCSIDGSTPITKSTGDWAEASLQQENAITGKPVPDSLNSTKEFSIKGVQGNMQKQDDTLAELPGSPPEKCDSLGSGVATVKVVLPDDHLKDEMDWQSSALGEITEADSSGESDDTVIEDITADTSFENNKIQAEKPVSIPSAVVKTGEREIKEIPSCEREEKTSKNFEELVSDSELHQDQPDILGRSPASEAACSKVPDTNVSLEDVSEVAPEKPITTENPKLPSTVSPNVFNETEFSLNVTTSAYLESLHGKNVKHIDDSSPEDLIAAFTETRDKGIVDSERNAFKAISEKMTDFKTTPPVEVLHENESGGSEIKDIGSKYSEQSKETNGSEPLGVFPTQGTPVASLDLEQEQLTIKALKELGERQVEKSTSAQRDAELPSEEVLKQTFTFAPESWPQRSYDILERNVKNGSDLGISQKPITIRETTRVDAVSSLSKTELVKKHVLARLLTDFSVHDLIFWRDVKKTGFVFGTTLIMLLSLAAFSVISVVSYLILALLSVTISFRIYKSVIQAVQKSEEGHPFKAYLDVDITLSSEAFHNYMNAAMVHINRALKLIIRLFLVEDLVDSLKLAVFMWLMTYVGAVFNGITLLILAELLIFSVPIVYEKYKTQIDHYVGIARDQTKSIVEKIQAKLPGIAKKKAE
modifications: biotinylated by TurboID in cells (sites not given)
